{"source": "IntAct's records for PubMed 35512704", "parents": {"B1": {"name": "Speckle-type POZ protein (Homo sapiens), O43791 (parent)", "chain": "MSRVPSPPPPAEMSSGPVAESWCYTQIKVVKFSYMWTINNFSFCREEMGEVIKSSTFSSGANDKLKWCLRVNPKGLDEESKDYLSLYLLLVSCPKSEVRAKFKFSILNAKGEETKAMESQRAYRFVQGKDWGFKKFIRRDFLLDEANGLLPDDKLTLFCEVSVVQDSVNISGQNTMNMVKVPECRLADELGGLWENSRFTDCCLCVAGQEFQAHKAILAARSPVFSAMFEHEMEESKKNRVEINDVEPEVFKEMMCFIYTGKAPNLDKMADDLLAAADKYALERLKVMCEDALCSNLSVENAAEILILADLHSADQLKTQAVDFINYHASDVLETSGWKSMVVSHPHLVAEAYRSLASAQCPFLGPPRKRLKQS", "partner": "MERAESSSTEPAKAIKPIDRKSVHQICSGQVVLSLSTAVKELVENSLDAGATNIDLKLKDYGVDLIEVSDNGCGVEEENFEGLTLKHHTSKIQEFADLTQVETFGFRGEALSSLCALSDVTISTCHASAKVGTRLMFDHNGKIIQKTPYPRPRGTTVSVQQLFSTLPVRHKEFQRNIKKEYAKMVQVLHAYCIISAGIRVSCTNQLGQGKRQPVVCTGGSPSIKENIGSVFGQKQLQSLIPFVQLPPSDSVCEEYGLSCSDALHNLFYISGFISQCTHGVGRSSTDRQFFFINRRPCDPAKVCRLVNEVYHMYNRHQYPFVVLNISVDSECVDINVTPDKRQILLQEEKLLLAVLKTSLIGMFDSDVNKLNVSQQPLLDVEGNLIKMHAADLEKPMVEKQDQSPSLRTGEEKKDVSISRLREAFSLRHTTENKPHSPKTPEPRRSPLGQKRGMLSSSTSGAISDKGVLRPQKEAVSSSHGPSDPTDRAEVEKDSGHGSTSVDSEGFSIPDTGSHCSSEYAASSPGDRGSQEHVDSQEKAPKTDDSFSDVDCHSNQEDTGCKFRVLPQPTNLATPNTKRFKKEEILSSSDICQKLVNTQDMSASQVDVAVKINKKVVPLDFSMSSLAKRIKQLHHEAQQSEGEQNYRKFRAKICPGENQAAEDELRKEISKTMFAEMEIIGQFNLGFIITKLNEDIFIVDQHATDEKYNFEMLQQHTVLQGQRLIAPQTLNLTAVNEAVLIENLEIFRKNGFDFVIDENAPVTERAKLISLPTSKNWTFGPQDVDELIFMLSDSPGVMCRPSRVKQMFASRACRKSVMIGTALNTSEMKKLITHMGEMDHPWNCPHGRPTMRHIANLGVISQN"}, "B2": {"name": "Speckle-type POZ protein (Homo sapiens), O43791 (parent)", "chain": "B1 chain", "partner": "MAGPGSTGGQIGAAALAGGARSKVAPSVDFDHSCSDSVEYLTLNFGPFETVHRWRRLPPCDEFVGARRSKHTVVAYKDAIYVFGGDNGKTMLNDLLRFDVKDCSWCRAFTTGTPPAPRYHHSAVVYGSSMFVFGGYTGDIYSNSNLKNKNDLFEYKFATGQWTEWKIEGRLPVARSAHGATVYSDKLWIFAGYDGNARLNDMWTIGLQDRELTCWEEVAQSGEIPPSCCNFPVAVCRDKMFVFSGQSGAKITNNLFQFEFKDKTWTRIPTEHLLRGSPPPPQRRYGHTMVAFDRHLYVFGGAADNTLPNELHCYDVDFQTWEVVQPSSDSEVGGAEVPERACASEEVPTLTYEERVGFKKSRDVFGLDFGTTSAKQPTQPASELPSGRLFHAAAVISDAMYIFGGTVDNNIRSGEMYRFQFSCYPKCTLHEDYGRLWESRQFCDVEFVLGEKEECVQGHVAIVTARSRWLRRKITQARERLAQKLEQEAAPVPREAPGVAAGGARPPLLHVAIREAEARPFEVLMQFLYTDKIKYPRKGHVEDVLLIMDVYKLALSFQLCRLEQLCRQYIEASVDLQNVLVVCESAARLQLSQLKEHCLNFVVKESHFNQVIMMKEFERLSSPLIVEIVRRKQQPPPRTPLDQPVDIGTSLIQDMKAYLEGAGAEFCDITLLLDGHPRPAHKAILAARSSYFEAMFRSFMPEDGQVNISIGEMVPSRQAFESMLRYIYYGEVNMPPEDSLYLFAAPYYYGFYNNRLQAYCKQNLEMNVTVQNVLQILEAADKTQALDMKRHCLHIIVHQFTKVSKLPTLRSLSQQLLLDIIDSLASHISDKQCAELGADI"}, "B3": {"name": "Speckle-type POZ protein (Homo sapiens), O43791 (parent)", "chain": "B1 chain", "partner": "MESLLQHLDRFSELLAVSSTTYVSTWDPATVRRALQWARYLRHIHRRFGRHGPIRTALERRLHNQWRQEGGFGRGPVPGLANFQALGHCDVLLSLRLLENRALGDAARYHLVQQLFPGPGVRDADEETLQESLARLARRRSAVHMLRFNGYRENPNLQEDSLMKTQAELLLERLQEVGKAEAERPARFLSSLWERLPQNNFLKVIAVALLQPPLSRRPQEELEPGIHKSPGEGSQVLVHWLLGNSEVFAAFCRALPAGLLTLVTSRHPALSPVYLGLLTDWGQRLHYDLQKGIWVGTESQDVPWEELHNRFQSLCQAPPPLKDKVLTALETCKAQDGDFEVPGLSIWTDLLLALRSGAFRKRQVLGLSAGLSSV"}, "B4": {"name": "Speckle-type POZ protein (Homo sapiens), O43791 (parent)", "chain": "B1 chain", "partner": "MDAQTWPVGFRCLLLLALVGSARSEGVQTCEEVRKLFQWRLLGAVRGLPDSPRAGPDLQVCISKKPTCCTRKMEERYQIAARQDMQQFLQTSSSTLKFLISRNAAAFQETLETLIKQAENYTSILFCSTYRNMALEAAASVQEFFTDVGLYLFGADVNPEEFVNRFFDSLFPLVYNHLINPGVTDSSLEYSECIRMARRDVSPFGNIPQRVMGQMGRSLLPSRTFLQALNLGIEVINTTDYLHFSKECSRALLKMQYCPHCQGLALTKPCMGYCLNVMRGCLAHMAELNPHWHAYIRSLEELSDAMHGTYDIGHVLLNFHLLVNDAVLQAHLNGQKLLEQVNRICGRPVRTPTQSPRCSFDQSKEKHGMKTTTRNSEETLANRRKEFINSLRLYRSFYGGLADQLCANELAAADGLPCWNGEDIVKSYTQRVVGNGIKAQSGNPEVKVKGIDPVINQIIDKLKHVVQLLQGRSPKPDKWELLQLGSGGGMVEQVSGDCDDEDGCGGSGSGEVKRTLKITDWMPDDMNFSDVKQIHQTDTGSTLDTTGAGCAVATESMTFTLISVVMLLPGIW"}, "B5": {"name": "Speckle-type POZ protein (Homo sapiens), O43791 (parent)", "chain": "B1 chain", "partner": "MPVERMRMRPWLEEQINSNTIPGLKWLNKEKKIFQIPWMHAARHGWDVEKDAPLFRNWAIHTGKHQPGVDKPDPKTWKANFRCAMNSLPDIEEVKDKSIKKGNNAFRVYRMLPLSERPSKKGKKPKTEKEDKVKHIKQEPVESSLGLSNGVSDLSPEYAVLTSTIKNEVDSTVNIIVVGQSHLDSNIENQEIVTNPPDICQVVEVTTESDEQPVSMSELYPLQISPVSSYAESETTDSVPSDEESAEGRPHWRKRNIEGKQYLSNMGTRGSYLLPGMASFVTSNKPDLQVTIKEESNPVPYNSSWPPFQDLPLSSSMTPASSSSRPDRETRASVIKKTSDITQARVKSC"}, "B6": {"name": "Speckle-type POZ protein (Homo sapiens), O43791 (parent)", "chain": "B1 chain", "partner": "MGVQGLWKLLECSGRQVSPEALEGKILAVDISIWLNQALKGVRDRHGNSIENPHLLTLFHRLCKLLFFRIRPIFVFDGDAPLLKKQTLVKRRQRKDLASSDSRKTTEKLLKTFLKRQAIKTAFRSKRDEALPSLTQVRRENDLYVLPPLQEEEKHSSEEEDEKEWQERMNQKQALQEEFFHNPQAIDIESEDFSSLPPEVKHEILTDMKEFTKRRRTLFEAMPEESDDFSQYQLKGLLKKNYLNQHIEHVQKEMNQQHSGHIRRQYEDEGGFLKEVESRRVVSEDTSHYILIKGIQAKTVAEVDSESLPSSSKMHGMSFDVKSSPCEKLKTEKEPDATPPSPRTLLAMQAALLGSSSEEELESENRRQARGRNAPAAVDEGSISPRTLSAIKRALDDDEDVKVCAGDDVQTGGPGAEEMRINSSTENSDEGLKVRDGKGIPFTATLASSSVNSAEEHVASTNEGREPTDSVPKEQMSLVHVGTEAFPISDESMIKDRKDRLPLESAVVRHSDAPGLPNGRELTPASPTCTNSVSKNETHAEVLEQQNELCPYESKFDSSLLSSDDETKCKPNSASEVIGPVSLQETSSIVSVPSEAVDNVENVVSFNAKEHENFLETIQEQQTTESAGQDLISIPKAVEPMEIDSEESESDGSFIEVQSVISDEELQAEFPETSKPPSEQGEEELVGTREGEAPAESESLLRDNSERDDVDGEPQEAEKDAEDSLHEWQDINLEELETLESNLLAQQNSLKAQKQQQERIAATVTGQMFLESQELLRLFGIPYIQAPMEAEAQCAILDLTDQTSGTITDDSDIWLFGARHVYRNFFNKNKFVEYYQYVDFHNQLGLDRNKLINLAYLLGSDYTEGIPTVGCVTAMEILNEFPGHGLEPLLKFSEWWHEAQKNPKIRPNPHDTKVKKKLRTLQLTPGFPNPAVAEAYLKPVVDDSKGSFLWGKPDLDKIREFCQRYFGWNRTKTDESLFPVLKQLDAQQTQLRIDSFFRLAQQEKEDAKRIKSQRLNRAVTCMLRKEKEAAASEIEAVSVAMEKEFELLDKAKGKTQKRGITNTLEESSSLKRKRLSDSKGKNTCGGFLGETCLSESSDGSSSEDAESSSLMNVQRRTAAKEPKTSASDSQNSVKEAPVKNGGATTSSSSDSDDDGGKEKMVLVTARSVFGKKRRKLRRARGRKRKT"}}}
{"variants_of": "B1", "conditions": "with pms2_human PMS2, P54278"}
{"variant": "F133V", "effect of a mutation on the interaction": "with no effect"}
{"variants_of": "B1", "conditions": "with pms2_human PMS2, P54278", "remark": "another data set of the same source"}
{"variant": "F133L", "effect of a mutation on the interaction": "with no effect"}
{"variants_of": "B1", "conditions": "with pms2_human PMS2, P54278", "remark": "another data set of the same source"}
{"variant": "F102C", "effect of a mutation on the interaction": "with no effect"}
{"variants_of": "B1", "conditions": "with pms2_human PMS2, P54278", "remark": "another data set of the same source"}
{"variant": "Y87C", "effect of a mutation on the interaction": "with no effect"}
{"variants_of": "B2", "conditions": "with lztr1_human LZTR1, Q8N653"}
{"variant": "Y87C", "effect of a mutation on the interaction": "with no effect"}
{"variants_of": "B2", "conditions": "with lztr1_human LZTR1, Q8N653", "remark": "another data set of the same source"}
{"variant": "F102C", "effect of a mutation on the interaction": "with no effect"}
{"variants_of": "B2", "conditions": "with lztr1_human LZTR1, Q8N653", "remark": "another data set of the same source"}
{"variant": "F133V", "effect of a mutation on the interaction": "with no effect"}
{"variants_of": "B2", "conditions": "with lztr1_human LZTR1, Q8N653", "remark": "another data set of the same source"}
{"variant": "F133L", "effect of a mutation on the interaction": "with no effect"}
{"variants_of": "B3", "conditions": "with fancf_human FANCF"}
{"variant": "F133V", "effect of a mutation on the interaction": "with no effect"}
{"variants_of": "B3", "conditions": "with fancf_human FANCF", "remark": "another data set of the same source"}
{"variant": "F133L", "effect of a mutation on the interaction": "with no effect"}
{"variants_of": "B3", "conditions": "with fancf_human FANCF", "remark": "another data set of the same source"}
{"variant": "F102C", "effect of a mutation on the interaction": "with no effect"}
{"variants_of": "B3", "conditions": "with fancf_human FANCF", "remark": "another data set of the same source"}
{"variant": "Y87C", "effect of a mutation on the interaction": "causing an interaction"}
{"variants_of": "B4", "conditions": "with gpc5_human GPC5, P78333"}
{"variant": "F102C", "effect of a mutation on the interaction": "with no effect"}
{"variants_of": "B4", "conditions": "with gpc5_human GPC5, P78333", "remark": "another data set of the same source"}
{"variant": "Y87C", "effect of a mutation on the interaction": "with no effect"}
{"variants_of": "B4", "conditions": "with gpc5_human GPC5, P78333", "remark": "another data set of the same source"}
{"variant": "F133V", "effect of a mutation on the interaction": "with no effect"}
{"variants_of": "B4", "conditions": "with gpc5_human GPC5, P78333", "remark": "another data set of the same source"}
{"variant": "F133L", "effect of a mutation on the interaction": "with no effect"}
{"variants_of": "B5", "conditions": "with irf2_human IRF2, P14316"}
{"variant": "Y87C", "effect of a mutation on the interaction": "with no effect"}
{"variants_of": "B5", "conditions": "with irf2_human IRF2, P14316", "remark": "another data set of the same source"}
{"variant": "F102C", "effect of a mutation on the interaction": "with no effect"}
{"variants_of": "B5", "conditions": "with irf2_human IRF2, P14316", "remark": "another data set of the same source"}
{"variant": "F133V", "effect of a mutation on the interaction": "with no effect"}
{"variants_of": "B5", "conditions": "with irf2_human IRF2, P14316", "remark": "another data set of the same source"}
{"variant": "F133L", "effect of a mutation on the interaction": "with no effect"}
{"variants_of": "B6", "conditions": "with ercc5_human ERCC5, P28715"}
{"variant": "F133L", "effect of a mutation on the interaction": "with no effect"}
{"variants_of": "B6", "conditions": "with ercc5_human ERCC5, P28715", "remark": "another data set of the same source"}
{"variant": "F133V", "effect of a mutation on the interaction": "with no effect"}
{"variants_of": "B6", "conditions": "with ercc5_human ERCC5, P28715", "remark": "another data set of the same source"}
{"variant": "Y87C", "effect of a mutation on the interaction": "with no effect"}
{"variants_of": "B6", "conditions": "with ercc5_human ERCC5, P28715", "remark": "another data set of the same source"}
{"variant": "F102C", "effect of a mutation on the interaction": "with no effect"}
